According to the supplement of paper PMC10219994:
± gives the standard deviation of the averaged measurements.

B1: library; a variant is named by its letters at N, in order (parent)
chain: GAGACCGCAACTGAAAAGTTGTGGNNNNNATAGTGAGTCGCTGCCTGCAAAGACACAACT

Variants of: B1
Assay: ligation selection enrichment (abundance after / before one-round selection) (fold); higher = more template-directed ligation activity
Conditions: with T7Psub CACGGAUGCUAAUACGACUCACUAUA; MgCl2 25 mM; 42 °C; 4 h; pH 8.5
Experimental: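 Lib-N5 ligase ribozyme library: five randomized core nucleotides (including the GGA motif of N8-1) within the fixed N8-1 ribozyme flanks, transcribed by T7 RNA polymerase with a 5'-triphosphate. The library (0.75 uM) was reacted with substrate T7Psub (6 uM) in 50 mM EPPS pH 8.5 with 25 mM MgCl2 at 42 C for 4 h. Ligated products were PAGE-purified, reverse transcribed and MiSeq sequenced; enrichment = abundance after selection / abundance before selection, with two independent replicates. The full transcript is built from the printed template flanks.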

Row | Variant | ligation selection enrichment
1 | GAGACCGCAACTGAAAAGTTGTGGTAGTAATAGTGAGTCGCTGCCTGCAAAGACACAACT | 0.19 ± 0.055
2 | GAGACCGCAACTGAAAAGTTGTGGCAGTAATAGTGAGTCGCTGCCTGCAAAGACACAACT | 0.14 ± 0.0029
3 | GAGACCGCAACTGAAAAGTTGTGGTAGTCATAGTGAGTCGCTGCCTGCAAAGACACAACT | 0.182 ± 0.044
4 | GAGACCGCAACTGAAAAGTTGTGGGAGTCATAGTGAGTCGCTGCCTGCAAAGACACAACT | 0.168 ± 0.0064
5 | GAGACCGCAACTGAAAAGTTGTGGAAGTCATAGTGAGTCGCTGCCTGCAAAGACACAACT | 0.146 ± 0.018
6 | GAGACCGCAACTGAAAAGTTGTGGCAGTCATAGTGAGTCGCTGCCTGCAAAGACACAACT | 0.125 ± 0.019
7 | GAGACCGCAACTGAAAAGTTGTGGTAGTGATAGTGAGTCGCTGCCTGCAAAGACACAACT | 0.6007 ± 0.0042
8 | GAGACCGCAACTGAAAAGTTGTGGAAGTGATAGTGAGTCGCTGCCTGCAAAGACACAACT | 0.294 ± 0.021
9 | GAGACCGCAACTGAAAAGTTGTGGGAGTGATAGTGAGTCGCTGCCTGCAAAGACACAACT | 0.274 ± 0.035
10 | GAGACCGCAACTGAAAAGTTGTGGCAGTGATAGTGAGTCGCTGCCTGCAAAGACACAACT | 0.185 ± 0.004
11 | GAGACCGCAACTGAAAAGTTGTGGAAGTTATAGTGAGTCGCTGCCTGCAAAGACACAACT | 0.257 ± 0.055
12 | GAGACCGCAACTGAAAAGTTGTGGCAGTTATAGTGAGTCGCTGCCTGCAAAGACACAACT | 0.238 ± 0.0081
13 | GAGACCGCAACTGAAAAGTTGTGGGAGTTATAGTGAGTCGCTGCCTGCAAAGACACAACT | 0.235 ± 0.074
14 | GAGACCGCAACTGAAAAGTTGTGGTAGTTATAGTGAGTCGCTGCCTGCAAAGACACAACT | 0.218 ± 0.078
15 | GAGACCGCAACTGAAAAGTTGTGGGATAAATAGTGAGTCGCTGCCTGCAAAGACACAACT | 0.189 ± 0.036
16 | GAGACCGCAACTGAAAAGTTGTGGTATAAATAGTGAGTCGCTGCCTGCAAAGACACAACT | 0.182 ± 0.077
17 | GAGACCGCAACTGAAAAGTTGTGGAATAAATAGTGAGTCGCTGCCTGCAAAGACACAACT | 0.179 ± 0.049
18 | GAGACCGCAACTGAAAAGTTGTGGCATAAATAGTGAGTCGCTGCCTGCAAAGACACAACT | 0.159 ± 0.023
19 | GAGACCGCAACTGAAAAGTTGTGGTATACATAGTGAGTCGCTGCCTGCAAAGACACAACT | 0.22 ± 0.0018
20 | GAGACCGCAACTGAAAAGTTGTGGGATACATAGTGAGTCGCTGCCTGCAAAGACACAACT | 0.188 ± 0.058
21 | GAGACCGCAACTGAAAAGTTGTGGAATACATAGTGAGTCGCTGCCTGCAAAGACACAACT | 0.183 ± 0.0067
22 | GAGACCGCAACTGAAAAGTTGTGGCATACATAGTGAGTCGCTGCCTGCAAAGACACAACT | 0.183 ± 0.029
23 | GAGACCGCAACTGAAAAGTTGTGGTATAGATAGTGAGTCGCTGCCTGCAAAGACACAACT | 0.995 ± 0.016

Row | Variant | ligation selection enrichment
24 | GAGACCGCAACTGAAAAGTTGTGGGATAGATAGTGAGTCGCTGCCTGCAAAGACACAACT | 0.538 ± 0.016
25 | GAGACCGCAACTGAAAAGTTGTGGAATAGATAGTGAGTCGCTGCCTGCAAAGACACAACT | 0.39 ± 0.091
26 | GAGACCGCAACTGAAAAGTTGTGGCATAGATAGTGAGTCGCTGCCTGCAAAGACACAACT | 0.237 ± 0.014
27 | GAGACCGCAACTGAAAAGTTGTGGCATATATAGTGAGTCGCTGCCTGCAAAGACACAACT | 1.2 ± 0.084
28 | GAGACCGCAACTGAAAAGTTGTGGTATATATAGTGAGTCGCTGCCTGCAAAGACACAACT | 0.817 ± 0.18
29 | GAGACCGCAACTGAAAAGTTGTGGGATATATAGTGAGTCGCTGCCTGCAAAGACACAACT | 0.446 ± 0.11
30 | GAGACCGCAACTGAAAAGTTGTGGAATATATAGTGAGTCGCTGCCTGCAAAGACACAACT | 0.299 ± 0.032
31 | GAGACCGCAACTGAAAAGTTGTGGGATCAATAGTGAGTCGCTGCCTGCAAAGACACAACT | 0.464 ± 0.032
32 | GAGACCGCAACTGAAAAGTTGTGGAATCAATAGTGAGTCGCTGCCTGCAAAGACACAACT | 0.454 ± 0.023
33 | GAGACCGCAACTGAAAAGTTGTGGTATCAATAGTGAGTCGCTGCCTGCAAAGACACAACT | 0.404 ± 0.031
34 | GAGACCGCAACTGAAAAGTTGTGGCATCAATAGTGAGTCGCTGCCTGCAAAGACACAACT | 0.288 ± 0.025
35 | GAGACCGCAACTGAAAAGTTGTGGAATCCATAGTGAGTCGCTGCCTGCAAAGACACAACT | 0.358 ± 0.014
36 | GAGACCGCAACTGAAAAGTTGTGGTATCCATAGTGAGTCGCTGCCTGCAAAGACACAACT | 0.323 ± 0.051
37 | GAGACCGCAACTGAAAAGTTGTGGGATCCATAGTGAGTCGCTGCCTGCAAAGACACAACT | 0.276 ± 0.057
38 | GAGACCGCAACTGAAAAGTTGTGGCATCCATAGTGAGTCGCTGCCTGCAAAGACACAACT | 0.247 ± 0.012
39 | GAGACCGCAACTGAAAAGTTGTGGTATCGATAGTGAGTCGCTGCCTGCAAAGACACAACT | 0.999 ± 0.23
40 | GAGACCGCAACTGAAAAGTTGTGGAATCGATAGTGAGTCGCTGCCTGCAAAGACACAACT | 0.816 ± 0.11
41 | GAGACCGCAACTGAAAAGTTGTGGGATCGATAGTGAGTCGCTGCCTGCAAAGACACAACT | 0.78 ± 0.097
42 | GAGACCGCAACTGAAAAGTTGTGGCATCGATAGTGAGTCGCTGCCTGCAAAGACACAACT | 1.33 ± 0.14
43 | GAGACCGCAACTGAAAAGTTGTGGCATCTATAGTGAGTCGCTGCCTGCAAAGACACAACT | 0.541 ± 0.19
44 | GAGACCGCAACTGAAAAGTTGTGGAATCTATAGTGAGTCGCTGCCTGCAAAGACACAACT | 0.451 ± 0.12
45 | GAGACCGCAACTGAAAAGTTGTGGTATCTATAGTGAGTCGCTGCCTGCAAAGACACAACT | 0.379 ± 0.13
